Test results taken from the Immune Epitope Database (IEDB).

Key:
HLA-A*02:01 [1] = test: IEDB peptide-MHC binding, purified MHC/direct/fluorescence; filed as Kd, often an IC50 or EC50 that approximates it; ≥ and ≤ were set here for values at or beyond the usual limits of such assays
HLA-A*02:11 [2] = test: as above
HLA-A*69:01 [3] = test: as above
HLA-A*02:50 = test: IEDB peptide-MHC binding, purified MHC/competitive/fluorescence; filed as Kd, often an IC50 or EC50 that approximates it; ≥ and ≤ were set here for values at or beyond the usual limits of such assays
HLA-B*15:09 = test: IEDB peptide-MHC binding, purified MHC/direct/fluorescence; filed as Kd, often an IC50 or EC50 that approximates it; ≥ and ≤ were set here for values at or beyond the usual limits of such assays
HLA-B*39:01 [4] = test: as above
HLA-A*01:01 = test: as above; settings: source organism: Mycobacterium tuberculosis
HLA-A*03:01 = test: as above; settings: source organism: Mycobacterium tuberculosis
HLA-A*11:01 = test: as above; settings: source organism: Mycobacterium tuberculosis
HLA-A*26:01 [5] = test: as above; settings: source organism: Mycobacterium tuberculosis str. Haarlem
HLA-A*31:01 [6] = test: as above; settings: source organism: Mycobacterium tuberculosis
HLA-A*68:02 [7] = test: as above; settings: source organism: Mycobacterium tuberculosis
HLA-B*07:02 = test: as above; settings: source organism: Mycobacterium tuberculosis
HLA-B*08:01 = test: as above; settings: source organism: Mycobacterium tuberculosis str. Haarlem
HLA-B*15:01 [8] = test: as above; settings: source organism: Mycobacterium tuberculosis
HLA-B*15:17 [9] = test: as above; settings: source organism: Mycobacterium tuberculosis
HLA-B*18:01 [10] = test: as above; settings: source organism: Mycobacterium tuberculosis
HLA-B*27:05 = test: as above; settings: source organism: Mycobacterium tuberculosis
HLA-B*40:01 = test: as above; settings: source organism: Mycobacterium tuberculosis
HLA-B*44:02 = test: as above; settings: source organism: Mycobacterium tuberculosis
HLA-B*48:01 = test: as above; settings: source organism: Mycobacterium tuberculosis
HLA-B*57:01 [11] = test: as above; settings: source organism: Mycobacterium tuberculosis
HLA-B*58:01 = test: as above; settings: source organism: Mycobacterium tuberculosis
HLA-A*02:03 = test: IEDB peptide-MHC binding, purified MHC/competitive/fluorescence; filed as Kd, often an IC50 or EC50 that approximates it; ≥ and ≤ were set here for values at or beyond the usual limits of such assays
HLA-C*12:03 = test: IEDB peptide-MHC binding, purified MHC/direct/fluorescence; filed as Kd, often an IC50 or EC50 that approximates it; ≥ and ≤ were set here for values at or beyond the usual limits of such assays; settings: source organism: Salmonella enterica subsp. enterica serovar Typhi
HLA-A*02:01 [12] = test: IEDB peptide-MHC binding, purified MHC/competitive/fluorescence; filed as Kd, often an IC50 or EC50 that approximates it; ≥ and ≤ were set here for values at or beyond the usual limits of such assays; settings: source organism: Canarypox virus
HLA-A*02:11 [13] = test: as above; settings: source organism: Canarypox virus
HLA-A*02:12 = test: as above; settings: source organism: Canarypox virus
HLA-A*02:16 = test: as above; settings: source organism: Canarypox virus
HLA-A*02:19 = test: as above; settings: source organism: Canarypox virus
HLA-A*23:01 = test: as above; settings: source organism: Canarypox virus
HLA-A*24:03 = test: as above; settings: source organism: Canarypox virus
HLA-A*26:01 [14] = test: as above; settings: source organism: Canarypox virus
HLA-A*31:01 [15] = test: as above; settings: source organism: Canarypox virus
HLA-A*68:02 [16] = test: as above; settings: source organism: Canarypox virus
HLA-A*69:01 [17] = test: as above; settings: source organism: Canarypox virus
HLA-B*15:01 [18] = test: as above; settings: source organism: Canarypox virus
HLA-B*15:17 [19] = test: as above; settings: source organism: Canarypox virus
HLA-B*18:01 [20] = test: as above; settings: source organism: Canarypox virus
HLA-B*27:03 = test: as above; settings: source organism: Canarypox virus
HLA-B*39:01 [21] = test: as above; settings: source organism: Canarypox virus
HLA-B*46:01 = test: as above; settings: source organism: Canarypox virus
HLA-B*51:01 = test: as above; settings: source organism: Canarypox virus
HLA-B*57:01 [22] = test: as above; settings: source organism: Canarypox virus
[23] = source organism: Mycobacterium tuberculosis
[24] = source organism: Mycobacterium tuberculosis str. Haarlem
[25] = source organism: Salmonella enterica subsp. enterica serovar Typhi

Sequence: SFYGYGFNV
- Kd (HLA-A*02:01 [1]; [23]): 0.413 µM
- Kd (HLA-A*02:11 [2]; [24]): 0.01 µM
- Kd (HLA-A*69:01 [3]; [23]): 0.052 µM
- Kd (HLA-A*02:50; source organism: Mycobacterium tuberculosis H37Ra): 0.0224 µM

Sequence: AHDELENYI
- Kd (HLA-B*15:09; source organism: Variola virus): 1.67 µM
- Kd (HLA-B*39:01 [4]; source organism: Camelpox virus CMS): 2.86 µM

Sequence: WEITYLGTT
- Kd (HLA-A*01:01): ≥ 20 µM
- Kd (HLA-A*02:01 [1]; [23]): ≥ 20 µM
- Kd (HLA-A*03:01): ≥ 20 µM
- Kd (HLA-A*11:01): ≥ 20 µM
- Kd (HLA-A*26:01 [5]): ≥ 20 µM
- Kd (HLA-A*31:01 [6]): ≥ 20 µM
- Kd (HLA-A*68:02 [7]): ≥ 20 µM
- Kd (HLA-A*69:01 [3]; [23]): ≥ 20 µM
- Kd (HLA-B*07:02): ≥ 20 µM
- Kd (HLA-B*08:01): ≥ 20 µM
- Kd (HLA-B*15:01 [8]): ≥ 10 µM
- Kd (HLA-B*15:09; [24]): ≥ 20 µM
- Kd (HLA-B*15:17 [9]): ≥ 20 µM
- Kd (HLA-B*18:01 [10]): 0.297 µM
- Kd (HLA-B*27:05): ≥ 20 µM
- Kd (HLA-B*39:01 [4]; [24]): ≥ 20 µM
- Kd (HLA-B*40:01): 3.26 µM
- Kd (HLA-B*44:02): ≥ 20 µM
- Kd (HLA-B*48:01): ≥ 20 µM
- Kd (HLA-B*57:01 [11]): ≥ 20 µM
- Kd (HLA-B*58:01): ≥ 20 µM
- Kd (HLA-A*02:03; source organism: Mycobacterium tuberculosis variant bovis BCG str. Pasteur 1173P2): ≥ 20 µM

Sequence: FIKNPACTV
- Kd (HLA-A*02:01 [1]; [25]): 6.36 µM
- Kd (HLA-A*02:11 [2]; [25]): 0.002 µM
- Kd (HLA-A*69:01 [3]; [25]): 0.154 µM
- Kd (HLA-C*12:03): ≤ 0.001 µM
- Kd (HLA-A*02:50; [25]): 0.0019 µM

Sequence: GTIIVHPNK
- Kd (HLA-A*02:01 [12]): ≥ 20 µM
- Kd (HLA-A*02:03; source organism: Canarypox virus): ≥ 20 µM
- Kd (HLA-A*02:11 [13]): ≥ 20 µM
- Kd (HLA-A*02:12): ≥ 20 µM
- Kd (HLA-A*02:16): ≥ 20 µM
- Kd (HLA-A*02:19): ≥ 20 µM
- Kd (HLA-A*23:01): ≥ 20 µM
- Kd (HLA-A*24:03): ≥ 20 µM
- Kd (HLA-A*26:01 [14]): ≥ 20 µM
- Kd (HLA-A*31:01 [15]): 0.101 µM
- Kd (HLA-A*68:02 [16]): ≥ 20 µM
- Kd (HLA-A*69:01 [17]): ≥ 20 µM
- Kd (HLA-B*15:01 [18]): ≥ 20 µM
- Kd (HLA-B*15:17 [19]): ≥ 20 µM
- Kd (HLA-B*18:01 [20]): ≥ 20 µM
- Kd (HLA-B*27:03): ≥ 20 µM
- Kd (HLA-B*39:01 [21]): ≥ 20 µM
- Kd (HLA-B*46:01): ≥ 20 µM
- Kd (HLA-B*51:01): ≥ 20 µM
- Kd (HLA-B*57:01 [22]): ≥ 20 µM
